B1: bispecific epitope binding protein S09 (bispecific antibody)
heavy: QVQLVQSGAEVKKPGASVKLSCKASGYTFSSYWMHWVRQAPGQGLEWIGEINPGNGHTNYNEKFKSRVTMTRDTSTSTAYMELSSLRSEDTAVYYCARSFKTARAFAYWGQGTLVTVSSASTKGPSVFPLAPSSKSTSGGTAALGCLVKDYFPEPVTVSWNSGALTSGVHTFPAVLQSSGLYSLSSVVTVPSSSLGTQTYICNVNHKPSNTKVDKKVEPKSCDKTHTCPPCPAPEAAGGPSVFLFPPKPKDTLMISRTPEVTCVVVDVSHEDPEVKFNWYVDGVEVHNAKTKPREEQYNSTYRVVSVLTVLHQDWLNGKEYKCAVSNKALPAPIEKTISKAKGQPREPQVYTLPPSREEMTKNQVSLTCLVKGFYPSDIAVEWESNGQPENNYKTTPPVLDSDGSFFLYSKLTVDKSRWQQGNVFSCSVMHEALHNHYTQKSLSLSPGGGGGSGGGGSFLESPDRPWNAPTFSPALLLVAEGDNATFTCSFSNASESFHVVWHRESPSGQTDTLAAFPEDRSQPGQDHRFRVTRLPNGRDFHMSVVRAQRNDSGTYVCGVISLAPKIQIKESLRAELRVTERRAEVPTAHPSPSPRPAGQFQTLVVG
light: DIVMTQSPAFLSVTPGEKVTITCRASQTISDYLHWYQQKPDQAPKLLIKYASQSISGIPSRFSGSGSGTDFTFTISSLEAEDAATYYCQDGHSWPPTFGQGTKLEIKRTVAAPSVFIFPPSDEQLKSGTASVVCLLNNFYPREAKVQWKVDNALQSGNSQESVTEQDSKDSTYSLSSTLTLSKADYEKHKVYACEVTHQGLSSPVTKSFNRGEC
notes: engineered IgG1 Fc; carries euPD-1
B2: bispecific epitope binding protein S04 (bispecific antibody)
chain: DIVMTQSPAFLSVTPGEKVTITCRASQTISDYLHWYQQKPDQAPKLLIKYASQSISGIPSRFSGSGSGTDFTFTISSLEAEDAATYYCQDGHSWPPTFGQGTKLEIKGSTSGSGKPGSGEGSTKGQVQLVQSGAEVKKPGASVKLSCKASGYTFSSYWMHWVRQAPGQGLEWIGEINPGNGHTNYNEKFKSRVTMTRDTSTSTAYMELSSLRSEDTAVYYCARSFKTARAFAYWGQGTLVTVSSASGGGGSGGGGSDKTHTCPPCPAPEAAGGPSVFLFPPKPKDTLMISRTPEVTCVVVDVSHEDPEVKFNWYVDGVEVHNAKTKPREEQYNSTYRVVSVLTVLHQDWLNGKEYKCAVSNKALPAPIEKTISKAKGQPREPQVYTLPPSREEMTKNQVSLTCLVKGFYPSDIAVEWESNGQPENNYKTTPPVLDSDGSFFLYSKLTVDKSRWQQGNVFSCSVMHEALHNHYTQKSLSLSPGGGGGSGGGGSFLESPDRPWNAPTFSPALLLVAEGDNATFTCSFSNASESFHVVWHRESPSGQTDTLAAFPEDRSQPGQDHRFRVTRLPNGRDFHMSVVRAQRNDSGTYVCGVISLAPKIQIKESLRAELRVTERRAEVPTAHPSPSPRPAGQFQTLVVGGGGGSGGGGSGGGGSFLESPDRPWNAPTFSPALLLVAEGDNATFTCSFSNASESFHVVWHRESPSGQTDTLAAFPEDRSQPGQDHRFRVTRLPNGRDFHMSVVRAQRNDSGTYVCGVISLAPKIQIKESLRAELRVTERRAEVPTAHPSPSPRPAGQFQTLVVG
notes: Anti-4-1BB 94kvt scFv x euPD-1 with hinge and engineered IgG1 Fc
B3: bispecific epitope binding protein S01 (bispecific antibody)
chain: QVQLVQSGAEVKKPGASVKLSCKASGYTFSSYWMHWVRQAPGQGLEWIGEINPGNGHTNYNEKFKSRVTMTRDTSTSTAYMELSSLRSEDTAVYYCARSFKTARAFAYWGQGTLVTVSSGSTSGSGKPGSGEGSTKGDIVMTQSPAFLSVTPGEKVTITCRASQTISDYLHWYQQKPDQAPKLLIKYASQSISGIPSRFSGSGSGTDFTFTISSLEAEDAATYYCQDGHSWPPTFGQGTKLEIKASGGGGSGGGGSDKTHTCPPCPAPEAAGGPSVFLFPPKPKDTLMISRTPEVTCVVVDVSHEDPEVKFNWYVDGVEVHNAKTKPREEQYNSTYRVVSVLTVLHQDWLNGKEYKCAVSNKALPAPIEKTISKAKGQPREPQVYTLPPSREEMTKNQVSLTCLVKGFYPSDIAVEWESNGQPENNYKTTPPVLDSDGSFFLYSKLTVDKSRWQQGNVFSCSVMHEALHNHYTQKSLSLSPGGGGGSGGGGSFLESPDRPWNAPTFSPALLLVAEGDNATFTCSFSNASESFHVVWHRESPSGQTDTLAAFPEDRSQPGQDHRFRVTRLPNGRDFHMSVVRAQRNDSGTYVCGVISLAPKIQIKESLRAELRVTERRAEVPTAHPSPSPRPAGQFQTLVVG
notes: Anti-4-1BB 94kvt scFv x euPD-1 with hinge and engineered IgG1 Fc (L234A, L235A, K322A, D356E, L358M)
B4: bispecific epitope binding protein S05 (bispecific antibody)
chain: FLESPDRPWNAPTFSPALLLVAEGDNATFTCSFSNASESFHVVWHRESPSGQTDTLAAFPEDRSQPGQDHRFRVTRLPNGRDFHMSVVRAQRNDSGTYVCGVISLAPKIQIKESLRAELRVTERRAEVPTAHPSPSPRPAGQFQTLVVGASGGGGSGGGGSDKTHTCPPCPAPEAAGGPSVFLFPPKPKDTLMISRTPEVTCVVVDVSHEDPEVKFNWYVDGVEVHNAKTKPREEQYNSTYRVVSVLTVLHQDWLNGKEYKCAVSNKALPAPIEKTISKAKGQPREPQVYTLPPSREEMTKNQVSLTCLVKGFYPSDIAVEWESNGQPENNYKTTPPVLDSDGSFFLYSKLTVDKSRWQQGNVFSCSVMHEALHNHYTQKSLSLSPGGGGGSGGGGSQVQLVQSGAEVKKPGASVKLSCKASGYTFSSYWMHWVRQAPGQGLEWIGEINPGNGHTNYNEKFKSRVTMTRDTSTSTAYMELSSLRSEDTAVYYCARSFKTARAFAYWGQGTLVTVSSGSTSGSGKPGSGEGSTKGDIVMTQSPAFLSVTPGEKVTITCRASQTISDYLHWYQQKPDQAPKLLIKYASQSISGIPSRFSGSGSGTDFTFTISSLEAEDAATYYCQDGHSWPPTFGQGTKLEIK
notes: as for B2
B5: bispecific epitope binding protein S07 (bispecific antibody)
chain: FLESPDRPWNAPTFSPALLLVAEGDNATFTCSFSNASESFHVVWHRESPSGQTDTLAAFPEDRSQPGQDHRFRVTRLPNGRDFHMSVVRAQRNDSGTYVCGVISLAPKIQIKESLRAELRVTERRAEVPTAHPSPSPRPAGQFQTLVVGASGGGGSGGGGSDKTHTCPPCPAPEAAGGPSVFLFPPKPKDTLMISRTPEVTCVVVDVSHEDPEVKFNWYVDGVEVHNAKTKPREEQYNSTYRVVSVLTVLHQDWLNGKEYKCAVSNKALPAPIEKTISKAKGQPREPQVYTLPPSREEMTKNQVSLTCLVKGFYPSDIAVEWESNGQPENNYKTTPPVLDSDGSFFLYSKLTVDKSRWQQGNVFSCSVMHEALHNHYTQKSLSLSPGGGGGSGGGGSDIVMTQSPAFLSVTPGEKVTITCRASQTISDYLHWYQQKPDQAPKLLIKYASQSISGIPSRFSGSGSGTDFTFTISSLEAEDAATYYCQDGHSWPPTFGQGTKLEIKGSTSGSGKPGSGEGSTKGQVQLVQSGAEVKKPGASVKLSCKASGYTFSSYWMHWVRQAPGQGLEWIGEINPGNGHTNYNEKFKSRVTMTRDTSTSTAYMELSSLRSEDTAVYYCARSFKTARAFAYWGQGTLVTVSS
notes: as for B2
B6: bispecific epitope binding protein S06 (bispecific antibody)
chain: FLESPDRPWNAPTFSPALLLVAEGDNATFTCSFSNASESFHVVWHRESPSGQTDTLAAFPEDRSQPGQDHRFRVTRLPNGRDFHMSVVRAQRNDSGTYVCGVISLAPKIQIKESLRAELRVTERRAEVPTAHPSPSPRPAGQFQTLVVGGGGGSGGGGSGGGGSFLESPDRPWNAPTFSPALLLVAEGDNATFTCSFSNASESFHVVWHRESPSGQTDTLAAFPEDRSQPGQDHRFRVTRLPNGRDFHMSVVRAQRNDSGTYVCGVISLAPKIQIKESLRAELRVTERRAEVPTAHPSPSPRPAGQFQTLVVGASGGGGSGGGGSDKTHTCPPCPAPEAAGGPSVFLFPPKPKDTLMISRTPEVTCVVVDVSHEDPEVKFNWYVDGVEVHNAKTKPREEQYNSTYRVVSVLTVLHQDWLNGKEYKCAVSNKALPAPIEKTISKAKGQPREPQVYTLPPSREEMTKNQVSLTCLVKGFYPSDIAVEWESNGQPENNYKTTPPVLDSDGSFFLYSKLTVDKSRWQQGNVFSCSVMHEALHNHYTQKSLSLSPGGGGGSGGGGSQVQLVQSGAEVKKPGASVKLSCKASGYTFSSYWMHWVRQAPGQGLEWIGEINPGNGHTNYNEKFKSRVTMTRDTSTSTAYMELSSLRSEDTAVYYCARSFKTARAFAYWGQGTLVTVSSGSTSGSGKPGSGEGSTKGDIVMTQSPAFLSVTPGEKVTITCRASQTISDYLHWYQQKPDQAPKLLIKYASQSISGIPSRFSGSGSGTDFTFTISSLEAEDAATYYCQDGHSWPPTFGQGTKLEIK
notes: as for B2
B7: bispecific epitope binding protein S08 (bispecific antibody)
chain: FLESPDRPWNAPTFSPALLLVAEGDNATFTCSFSNASESFHVVWHRESPSGQTDTLAAFPEDRSQPGQDHRFRVTRLPNGRDFHMSVVRAQRNDSGTYVCGVISLAPKIQIKESLRAELRVTERRAEVPTAHPSPSPRPAGQFQTLVVGGGGGSGGGGSGGGGSFLESPDRPWNAPTFSPALLLVAEGDNATFTCSFSNASESFHVVWHRESPSGQTDTLAAFPEDRSQPGQDHRFRVTRLPNGRDFHMSVVRAQRNDSGTYVCGVISLAPKIQIKESLRAELRVTERRAEVPTAHPSPSPRPAGQFQTLVVGASGGGGSGGGGSDKTHTCPPCPAPEAAGGPSVFLFPPKPKDTLMISRTPEVTCVVVDVSHEDPEVKFNWYVDGVEVHNAKTKPREEQYNSTYRVVSVLTVLHQDWLNGKEYKCAVSNKALPAPIEKTISKAKGQPREPQVYTLPPSREEMTKNQVSLTCLVKGFYPSDIAVEWESNGQPENNYKTTPPVLDSDGSFFLYSKLTVDKSRWQQGNVFSCSVMHEALHNHYTQKSLSLSPGGGGGSGGGGSDIVMTQSPAFLSVTPGEKVTITCRASQTISDYLHWYQQKPDQAPKLLIKYASQSISGIPSRFSGSGSGTDFTFTISSLEAEDAATYYCQDGHSWPPTFGQGTKLEIKGSTSGSGKPGSGEGSTKGQVQLVQSGAEVKKPGASVKLSCKASGYTFSSYWMHWVRQAPGQGLEWIGEINPGNGHTNYNEKFKSRVTMTRDTSTSTAYMELSSLRSEDTAVYYCARSFKTARAFAYWGQGTLVTVSS
notes: as for B2

Molecular target: T1, 4-1BB antigen (abclon) (UniProt Q07011 24-186)
T1 construct: Bought antigen
Assay: SPR, Biacore T200; variant captured on CM5, 4-1BB antigen injected
Method: (§1) Affinity to 4-1BB was determined using the bispecific epitope binding protein variants diluted to 5 μg/ml and then fixed to CM5 chip (Cytiva, BR-1005-30) with human capture (Cytiva, Cat. No. BR-1008-39). The 4-1BB antigen (abclon) was injected at concentrations of 100, 50, 25, 12.5, 6.25, and 3.125 nM, the association time was set to 150 seconds, and the dissociation time was set to 240 seconds. Biacore T200 (cytiva) was used as the analysis equipment.

T1 sequence (Q07011 24-186): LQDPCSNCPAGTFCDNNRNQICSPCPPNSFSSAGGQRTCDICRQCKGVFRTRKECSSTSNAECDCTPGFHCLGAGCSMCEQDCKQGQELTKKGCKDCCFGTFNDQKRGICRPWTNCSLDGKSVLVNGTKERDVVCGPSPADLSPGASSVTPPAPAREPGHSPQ

Kd [nM] | koff [s⁻¹] | kon [M⁻¹ s⁻¹] | Binder
2.17 | 0.000568 | 261000 | B1
2.87 | 0.000662 | 231000 | B2
3.34 | 0.000537 | 161000 | B3
3.66 | 0.000466 | 127000 | B4
105 | 0.000676 | 6430 | B5
3.72 | 0.000914 | 245000 | B6
6.83 | 0.000764 | 112000 | B7

Molecular target: T2, PD-L1 antigen (SinoBiologics, Cat. No. 10084-H08H) (human, UniProt Q9NZQ7 19-238)
T2 construct: Bought antigen; also called human PD-L1
Assay: SPR, Biacore T200; variant captured on CM5, PD-L1 antigen injected
Method: as §1
Affinity to PD-L1 was determined using the bispecific epitope binding protein variants diluted to 10 μg/ml and then fixed to CM5 chip with human capture.

T2 sequence (Q9NZQ7 19-238 limits assumed): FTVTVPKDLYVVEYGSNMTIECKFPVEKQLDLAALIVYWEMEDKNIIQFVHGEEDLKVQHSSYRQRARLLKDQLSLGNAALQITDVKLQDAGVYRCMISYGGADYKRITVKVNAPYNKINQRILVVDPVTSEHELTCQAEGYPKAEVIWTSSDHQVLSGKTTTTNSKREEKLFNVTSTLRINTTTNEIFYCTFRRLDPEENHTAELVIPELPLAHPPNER

Kd [nM] | koff [s⁻¹] | kon [M⁻¹ s⁻¹] | Binder
6.26 | 0.00131 | 209000 | B1
2.34 | 0.0014 | 596000 | B2
5.73 | 0.00132 | 230000 | B3
1.16 | 0.00169 | 1.46e+06 | B4
1.58 | 0.00158 | 1e+06 | B5
2.22 | 0.00186 | 837000 | B6
2.22 | 0.00186 | 837000 | B7
